Values belong to the binder of their own block, whether it stands above or below them. Where no end group is shown, it is not given here.
What was measured:
[1] = molecular target: T1, Seq11 (recombinant vWF fragment AA 1-505 of SEQ ID NO: 1 with C-terminal Strep-Tag, from HEK 293) (human, UniProt P04275 764-1268, four O-glycosylation sites 485, 492, 493, 500 occupied (core 1, core 2 and/or extended core 1, sialylated)); assay: SIGLEC ELISA with Scatchard analysis (GraphPad Prism); no unit beside the number, concentration axis in µM [panel SIGLEC 9]
T1 construct: Expressed in HEK293 / MEXi-293 cells, purified on Strep-Tactin; not shown: C-terminal Twin-Strep-tag of the pDSG vector (IBA)

[2] = molecular target: T1, Seq11 (recombinant vWF fragment AA …); assay: SIGLEC ELISA, Scatchard analysis of the binding curve (apparent KD)
[3] = molecular target: T2, vWF C-terminal fragment (V8 protease digest of plasma derived vWF) (human, UniProt P04275 2129-2813, biotinylated with EZ-Link Sulfo-NHS-Biotin); assay: ELISA: SIGLEC-Fc captured on a protein A plate (500 ng/well), biotinylated vWF fragment at 1 µg/mL, streptavidin-HRP, A492, single concentration
T2 construct: the real molecule is only its C-terminal part; also called C-terminal vWF fragment

[4] = molecular target: T1, Seq11 (recombinant vWF fragment AA …); assay: SIGLEC ELISA with Scatchard analysis (GraphPad Prism); no unit beside the number, concentration axis in µM [panel SIGLEC 7]
[5] = molecular target: T1, Seq11 (recombinant vWF fragment AA …); assay: SIGLEC ELISA with Scatchard analysis (GraphPad Prism); no unit beside the number, concentration axis in µM [panel SIGLEC 5]
[6] = molecular target: T3, full length plasmatic VWF (Wilate, Octapharma) (human, UniProt P04275 764-2813); assay: SPR (Biacore 3000): VWF immobilised on a CM5 chip by amine coupling, FVIII injected 0.2-45 nM; mean of five measurements
T3 construct: multimer

[7] = molecular target: T4, Recombinant SIG-10 Fc-fusion protein (R&D Systems) (human, UniProt Q96LC7 17-546, limits assumed); assay: ELISA: SIGLEC-Fc captured on a protein A plate (500 ng/well), biotinylated cluster fragment at 4 µg/mL, streptavidin-HRP, A492, single concentration
T4 construct: Bought from R&D Systems; Held on the plate by protein A; not shown: Fc part of the bought fusion protein
T4 sequence (looked up): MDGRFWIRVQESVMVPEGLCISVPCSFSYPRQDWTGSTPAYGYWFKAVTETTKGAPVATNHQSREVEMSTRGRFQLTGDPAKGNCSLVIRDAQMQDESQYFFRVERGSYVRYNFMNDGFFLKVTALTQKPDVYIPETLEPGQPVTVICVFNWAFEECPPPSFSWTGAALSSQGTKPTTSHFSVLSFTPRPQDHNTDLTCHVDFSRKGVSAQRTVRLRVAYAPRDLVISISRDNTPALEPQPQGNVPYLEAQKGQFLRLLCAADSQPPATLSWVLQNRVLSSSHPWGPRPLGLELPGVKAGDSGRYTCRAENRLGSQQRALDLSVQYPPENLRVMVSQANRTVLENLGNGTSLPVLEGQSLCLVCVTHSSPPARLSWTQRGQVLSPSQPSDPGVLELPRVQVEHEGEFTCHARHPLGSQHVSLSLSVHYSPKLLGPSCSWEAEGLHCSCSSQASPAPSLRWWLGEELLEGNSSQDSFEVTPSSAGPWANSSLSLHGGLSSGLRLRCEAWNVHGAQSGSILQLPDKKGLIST

T2 sequence (P04275 2129-2813 limits assumed): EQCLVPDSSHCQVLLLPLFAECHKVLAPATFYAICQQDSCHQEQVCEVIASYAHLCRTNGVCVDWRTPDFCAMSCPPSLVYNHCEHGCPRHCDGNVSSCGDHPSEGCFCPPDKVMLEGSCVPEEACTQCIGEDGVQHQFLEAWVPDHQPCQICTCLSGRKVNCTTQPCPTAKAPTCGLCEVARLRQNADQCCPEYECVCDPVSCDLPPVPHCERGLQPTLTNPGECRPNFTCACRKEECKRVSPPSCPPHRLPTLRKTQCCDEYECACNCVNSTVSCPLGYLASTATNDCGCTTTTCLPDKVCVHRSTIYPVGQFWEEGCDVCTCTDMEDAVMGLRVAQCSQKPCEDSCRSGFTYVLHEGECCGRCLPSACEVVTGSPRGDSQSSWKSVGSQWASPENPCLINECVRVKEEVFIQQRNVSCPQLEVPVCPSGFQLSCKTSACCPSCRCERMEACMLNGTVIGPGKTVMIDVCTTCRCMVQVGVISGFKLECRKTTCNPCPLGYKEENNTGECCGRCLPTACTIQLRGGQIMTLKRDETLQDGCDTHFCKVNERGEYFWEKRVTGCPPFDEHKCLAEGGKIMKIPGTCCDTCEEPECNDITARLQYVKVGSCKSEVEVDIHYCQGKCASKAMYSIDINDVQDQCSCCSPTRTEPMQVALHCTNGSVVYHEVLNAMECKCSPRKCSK
T1 sequence (P04275 764-1268): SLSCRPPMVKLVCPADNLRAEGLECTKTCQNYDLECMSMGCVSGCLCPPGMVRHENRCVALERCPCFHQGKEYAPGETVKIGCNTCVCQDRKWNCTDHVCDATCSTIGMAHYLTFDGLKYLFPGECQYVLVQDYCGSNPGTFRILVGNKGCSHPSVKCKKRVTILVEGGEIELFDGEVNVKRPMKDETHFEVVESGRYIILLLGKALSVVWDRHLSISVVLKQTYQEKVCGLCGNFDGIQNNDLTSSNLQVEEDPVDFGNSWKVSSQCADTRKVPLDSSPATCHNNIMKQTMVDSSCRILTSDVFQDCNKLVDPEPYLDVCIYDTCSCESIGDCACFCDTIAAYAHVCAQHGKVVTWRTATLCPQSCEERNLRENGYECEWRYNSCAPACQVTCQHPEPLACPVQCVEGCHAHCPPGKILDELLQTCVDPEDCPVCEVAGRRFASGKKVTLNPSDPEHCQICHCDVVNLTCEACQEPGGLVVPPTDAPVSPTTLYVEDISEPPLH
T3 sequence (P04275 764-2813 limits assumed): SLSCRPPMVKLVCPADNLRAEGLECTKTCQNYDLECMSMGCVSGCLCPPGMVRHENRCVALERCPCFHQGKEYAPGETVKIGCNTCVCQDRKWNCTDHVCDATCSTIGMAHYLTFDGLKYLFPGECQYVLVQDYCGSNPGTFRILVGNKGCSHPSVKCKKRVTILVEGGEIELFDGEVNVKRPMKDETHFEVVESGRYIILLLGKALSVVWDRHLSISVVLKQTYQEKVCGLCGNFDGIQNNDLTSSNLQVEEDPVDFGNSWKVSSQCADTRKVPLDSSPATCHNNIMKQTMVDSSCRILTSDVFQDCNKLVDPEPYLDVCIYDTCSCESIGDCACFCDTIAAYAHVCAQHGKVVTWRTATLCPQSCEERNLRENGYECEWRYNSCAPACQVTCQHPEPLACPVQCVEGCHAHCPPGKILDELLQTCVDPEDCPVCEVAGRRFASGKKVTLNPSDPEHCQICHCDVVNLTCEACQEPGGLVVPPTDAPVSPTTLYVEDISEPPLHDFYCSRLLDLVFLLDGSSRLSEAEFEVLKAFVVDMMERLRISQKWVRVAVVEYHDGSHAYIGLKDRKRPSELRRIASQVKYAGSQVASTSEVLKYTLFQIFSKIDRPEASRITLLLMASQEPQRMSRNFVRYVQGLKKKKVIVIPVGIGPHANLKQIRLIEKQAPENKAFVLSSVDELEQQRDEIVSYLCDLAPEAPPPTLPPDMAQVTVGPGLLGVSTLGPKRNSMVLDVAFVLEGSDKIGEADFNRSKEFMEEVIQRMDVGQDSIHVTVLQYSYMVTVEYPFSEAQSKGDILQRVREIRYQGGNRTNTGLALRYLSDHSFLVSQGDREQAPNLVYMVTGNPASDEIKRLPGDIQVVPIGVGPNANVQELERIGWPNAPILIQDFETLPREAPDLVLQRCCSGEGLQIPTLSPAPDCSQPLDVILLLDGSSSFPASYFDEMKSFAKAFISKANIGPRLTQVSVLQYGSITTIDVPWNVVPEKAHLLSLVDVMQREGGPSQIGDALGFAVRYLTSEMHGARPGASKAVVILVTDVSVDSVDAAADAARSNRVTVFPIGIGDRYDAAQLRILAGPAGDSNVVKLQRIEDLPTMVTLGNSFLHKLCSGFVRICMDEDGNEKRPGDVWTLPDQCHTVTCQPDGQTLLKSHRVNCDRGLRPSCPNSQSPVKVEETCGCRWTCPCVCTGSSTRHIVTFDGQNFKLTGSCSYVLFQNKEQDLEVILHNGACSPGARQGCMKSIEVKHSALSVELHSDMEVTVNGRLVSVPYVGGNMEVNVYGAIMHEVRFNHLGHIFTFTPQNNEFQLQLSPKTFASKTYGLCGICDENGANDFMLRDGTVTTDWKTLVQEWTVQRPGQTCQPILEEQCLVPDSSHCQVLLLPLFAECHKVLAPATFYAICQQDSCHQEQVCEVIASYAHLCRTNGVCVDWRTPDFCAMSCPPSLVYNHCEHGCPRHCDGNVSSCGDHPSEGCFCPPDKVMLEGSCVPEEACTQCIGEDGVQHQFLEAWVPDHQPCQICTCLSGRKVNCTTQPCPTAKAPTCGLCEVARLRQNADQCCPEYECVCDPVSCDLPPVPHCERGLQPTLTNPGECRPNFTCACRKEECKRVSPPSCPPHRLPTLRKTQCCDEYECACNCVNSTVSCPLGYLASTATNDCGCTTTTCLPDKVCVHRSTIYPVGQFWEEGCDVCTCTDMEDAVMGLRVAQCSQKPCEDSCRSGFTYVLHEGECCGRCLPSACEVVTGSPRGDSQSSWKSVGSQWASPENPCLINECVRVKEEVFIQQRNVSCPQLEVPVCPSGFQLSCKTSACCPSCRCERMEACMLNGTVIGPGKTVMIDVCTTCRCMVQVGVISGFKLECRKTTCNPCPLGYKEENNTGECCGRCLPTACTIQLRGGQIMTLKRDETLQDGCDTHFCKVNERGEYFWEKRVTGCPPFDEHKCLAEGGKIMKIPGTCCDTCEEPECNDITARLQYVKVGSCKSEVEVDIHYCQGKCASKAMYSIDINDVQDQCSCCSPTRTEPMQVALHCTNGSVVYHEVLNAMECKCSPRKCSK

B2: Recombinant SIG-7 Fc-fusion protein (R&D Systems) (Fc fusion)
chain: QKSNRKDYSLTMQSSVTVQEGMCVHVRCSFSYPVDSQTDSDPVHGYWFRAGNDISWKAPVATNNPAWAVQEETRDRFHLLGDPQTKNCTLSIRDARMSDAGRYFFRMEKGNIKWNYKYDQLSVNVTALTHRPNILIPGTLESGCFQNLTCSVPWACEQGTPPMISWMGTSVSPLHPSTTRSSVLTLIPQPQHHGTSLTCQVTLPGAGVTTNRTIQLNVSYPPQNLTVTVFQGEGTASTALGNSSSLSVLEGQSLRLVCAVDSNPPARLSWTWRSLTLYPSQPSNPLVLELQVHLGDEGEFTCRAQNSLGSQHVSLNLSLQQEYTGKMRPVSGVLLGAVG
notes: Bought from R&D Systems; Held on the plate by protein A; also called SIGLEC 7; not shown: Fc part of the bought fusion protein
Kd [2]: 371 nM
binding result [3]: no binding (tested: 1 µg/mL)
Kd [4]: 371 nM

B3: Recombinant SIG-5 Fc-fusion protein (R&D Systems) (Fc fusion)
chain: EKPVYELQVQKSVTVQEGLCVLVPCSFSYPWRSWYSSPPLYVYWFRDGEIPYYAEVVATNNPDRRVKPETQGRFRLLGDVQKKNCSLSIGDARMEDTGSYFFRVERGRDVKYSYQQNKLNLEVTALIEKPDIHFLEPLESGRPTRLSCSLPGSCEAGPPLTFSWTGNALSPLDPETTRSSELTLTPRPEDHGTNLTCQMKRQGAQVTTERTVQLNVSYAPQTITIFRNGIALEILQNTSYLPVLEGQALRLLCDAPSNPPAHLSWFQGSPALNATPISNTGILELRRVRSAEEGGFTCRAQHPLGFLQIFLNLSVYSLPQLLGPSCSWEAEGLHCRCSFRARPAPSLCWRLEEKPLEGNSSQGSFKVNSSSAGPWANSSLILHGGLSSDLKVSCKAWNIYGSQSGSVLLLQGRSNLGT
notes: Bought from R&D Systems; Held on the plate by protein A; also called SIGLEC 5; not shown: Fc part of the bought fusion protein
Kd [5]: 494 nM
Kd [2]: 494 nM
binding result [3]: no binding (tested: 1 µg/mL)

B4: FVIII (Nuwiq, Octapharma) (other, UniProt P00451 20-2351, looked up)
chain: ATRRYYLGAVELSWDYMQSDLGELPVDARFPPRVPKSFPFNTSVVYKKTLFVEFTDHLFNIAKPRPPWMGLLGPTIQAEVYDTVVITLKNMASHPVSLHAVGVSYWKASEGAEYDDQTSQREKEDDKVFPGGSHTYVWQVLKENGPMASDPLCLTYSYLSHVDLVKDLNSGLIGALLVCREGSLAKEKTQTLHKFILLFAVFDEGKSWHSETKNSLMQDRDAASARAWPKMHTVNGYVNRSLPGLIGCHRKSVYWHVIGMGTTPEVHSIFLEGHTFLVRNHRQASLEISPITFLTAQTLLMDLGQFLLFCHISSHQHDGMEAYVKVDSCPEEPQLRMKNNEEAEDYDDDLTDSEMDVVRFDDDNSPSFIQIRSVAKKHPKTWVHYIAAEEEDWDYAPLVLAPDDRSYKSQYLNNGPQRIGRKYKKVRFMAYTDETFKTREAIQHESGILGPLLYGEVGDTLLIIFKNQASRPYNIYPHGITDVRPLYSRRLPKGVKHLKDFPILPGEIFKYKWTVTVEDGPTKSDPRCLTRYYSSFVNMERDLASGLIGPLLICYKESVDQRGNQIMSDKRNVILFSVFDENRSWYLTENIQRFLPNPAGVQLEDPEFQASNIMHSINGYVFDSLQLSVCLHEVAYWYILSIGAQTDFLSVFFSGYTFKHKMVYEDTLTLFPFSGETVFMSMENPGLWILGCHNSDFRNRGMTALLKVSSCDKNTGDYYEDSYEDISAYLLSKNNAIEPRSFSQNSRHQAYRYRRGEITRTTLQSDQEEIDYDDTISVEMKKEDFDIYDEDENQSPRSFQKKTRHYFIAAVERLWDYGMSSSPHVLRNRAQSGSVPQFKKVVFQEFTDGSFTQPLYRGELNEHLGLLGPYIRAEVEDNIMVTFRNQASRPYSFYSSLISYEEDQRQGAEPRKNFVKPNETKTYFWKVQHHMAPTKDEFDCKAWAYFSDVDLEKDVHSGLIGPLLVCHTNTLNPAHGRQVTVQEFALFFTIFDETKSWYFTENMERNCRAPCNIQMEDPTFKENYRFHAINGYIMDTLPGLVMAQDQRIRWYLLSMGSNENIHSIHFSGHVFTVRKKEEYKMALYNLYPGVFETVEMLPSKAGIWRVECLIGEHLHAGMSTLFLVYSNKCQTPLGMASGHIRDFQITASGQYGQWAPKLARLHYSGSINAWSTKEPFSWIKVDLLAPMIIHGIKTQGARQKFSSLYISQFIIMYSLDGKKWQTYRGNSTGTLMVFFGNVDSSGIKHNIFNPPIIARYIRLHPTHYSIRSTLRMELMGCDLNSCSMPLGMESKAISDAQITASSYFTNMFATWSPSKARLHLQGRSNAWRPQVNNPKEWLQVDFQKTMKVTGVTTQGVKSLLTSMYVKEFLISSSQDGHQWTLFFQNGKVKVFQGNQDSFTPVVNSLDPPLLTRYLRIHPQSWVHQIALRMEVLGCEAQDLY
notes: Commercial product; also called recombinant FVIII; factor VIII
Kd [6]: 0.3 nM

Further lines, results first:

Kd [1]: 591 nM
Kd [2]: 591 nM
binding result [3]: no binding (tested: 1 µg/mL)
B1: Recombinant SIG-9 Fc-fusion protein (R&D Systems) (Fc fusion)
chain: QTSKLLTMQSSVTVQEGLCVHVPCSFSYPSHGWIYPGPVVHGYWFREGANTDQDAPVATNNPARAVWEETRDRFHLLGDPHTKNCTLSIRDARRSDAGRYFFRMEKGSIKWNYKHHRLSVNVTALTHRPNILIPGTLESGCPQNLTCSVPWACEQGTPPMISWIGTSVSPLDPSTTRSSVLTLIPQPQDHGTSLTCQVTFPGASVTTNKTVHLNVSYPPQNLTMTVFQGDGTVSTVLGNGSSLSLPEGQSLRLVCAVDAVDSNPPARLSLSWRGLTLCPSQPSNPGVLELPWVHLRDAAEFTCRAQNPLGSQQVYLNVSLQSKATSGVTQG
notes: Bought from R&D Systems; Held on the plate by protein A; also called SIGLEC 9; not shown: Fc part of the bought fusion protein

binding result [7]: no binding (tested: 4 µg/mL)
B5: Cluster 2 fragment (tryptic glycopeptide of plasma derived vWF, AA 674 to 728/729) (peptide)
peptide: AFVLSSVDELEQQRDEIVSYLC(Maleimide‑PEG2‑Biotin)DLAPEAPPPTLPPDMAQVTVGPGLLGVSTLGPKR
modifications: also: natural O-glycans (sialylated core 2), sites not given here
notes: also called Cluster II; O-glycosylation Cluster II
